One may read the stoichiometry N as the number of molecules, sites or subunits per partner or assembly.

This assay has as its target Cqm1 receptor protein (functional form; residues 23–560) (Culex quinquefasciatus). The experiment in a line: small-angle neutron scattering (SANS); single proteins in 100% D2O buffer C (25 mM HEPES pH 7.5, 25 mM NaCl), 25°C; Cqm1 3.3 mg/ml, hBinB 3.3 mg/ml; ab initio IFT modelling and fits against crystal structures.

For “Cqm1 receptor protein (functional form; residues 23–560)”, the stoichiometry N came out at 2.

Values taken from PMC7055391.
